# Measurements as given in IntAct's records for PubMed 12615979.
# B1: Serine/threonine-protein kinase plo1 (Schizosaccharomyces pombe (strain ATCC 38366 / 972)), P50528 (parent)
# chain: MASVAIKEPKTAITPKKKSKASRLCFTPPTNLHNNKKNIFYTRYDCIGEGGFARCFRVKDNYGNIYAAKVIAKRSLQNDKTKLKLFGEIKVHQSMSHPNIVGFIDCFEDSTNIYLILELCEHKSLMELLRKRKQLTEPEVRYLMMQILGALKYMHKKRVIHRDLKLGNIMLDESNNVKIGDFGLAALLMDDEERKMTICGTPNYIAPEILFNSKEGHSFEVDLWSAGVVMYALLIGKPPFQDKEVKTIYRKIKANSYSFPSNVDISAEAKDLISSLLTHDPSIRPSIDDIVDHEFFHTGYMASTLPDEILHSMPIWPSSQSKSSFQRNLDFVASASGVGFGNSAGVEKNKPYALRTDEVDNDRILPSVLSPRDRVNPVMKIGPETKPVPSKLSTALHAARKSTDGSLGSRVKVLREESQSFVPTKSAVTEQVEPIQLIRSLSANTVSRLSKVGNMKSDIWISVKKTALKIGMALEAHTHALTSEDADSEPVLFITKWVDYSNKYGLGYQLSDESVGVHFNDDTSLLFSADEEVVEYALHPKDTEIKPYIYPASKVPESIRSKLQLLKHFKSYMGQNLSKAVQDESFEKPKNSTSNTMLFMQHYLRTRQAIMFRLSNGIFQFNFLDHRKVVISSTARKIIVLDKERERVELPLQEASAFSEDLRSRLKYIRETLESWASKMEVS
# partner: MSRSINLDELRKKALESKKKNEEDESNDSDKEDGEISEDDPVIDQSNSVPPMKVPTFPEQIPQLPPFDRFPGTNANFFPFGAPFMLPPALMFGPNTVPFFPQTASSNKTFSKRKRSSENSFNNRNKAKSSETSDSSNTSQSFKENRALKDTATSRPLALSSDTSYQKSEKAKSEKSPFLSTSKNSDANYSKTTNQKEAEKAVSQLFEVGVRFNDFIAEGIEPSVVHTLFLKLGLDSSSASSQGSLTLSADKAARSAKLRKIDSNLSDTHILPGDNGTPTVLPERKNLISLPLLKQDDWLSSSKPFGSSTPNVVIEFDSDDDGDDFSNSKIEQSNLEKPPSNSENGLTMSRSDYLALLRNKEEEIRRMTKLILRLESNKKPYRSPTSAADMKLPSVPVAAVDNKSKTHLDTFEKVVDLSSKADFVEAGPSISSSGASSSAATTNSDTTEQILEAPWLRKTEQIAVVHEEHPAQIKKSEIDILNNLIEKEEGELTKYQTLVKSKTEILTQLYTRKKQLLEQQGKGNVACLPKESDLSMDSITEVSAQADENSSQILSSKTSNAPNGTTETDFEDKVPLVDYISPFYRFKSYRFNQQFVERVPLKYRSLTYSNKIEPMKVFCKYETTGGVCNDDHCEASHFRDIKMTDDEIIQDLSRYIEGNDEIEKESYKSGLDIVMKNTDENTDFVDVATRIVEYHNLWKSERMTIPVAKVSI
# B2: Serine/threonine-protein kinase plo1 (Schizosaccharomyces pombe (strain ATCC 38366 / 972)), P50528 (parent)
# chain: B1 chain
# partner: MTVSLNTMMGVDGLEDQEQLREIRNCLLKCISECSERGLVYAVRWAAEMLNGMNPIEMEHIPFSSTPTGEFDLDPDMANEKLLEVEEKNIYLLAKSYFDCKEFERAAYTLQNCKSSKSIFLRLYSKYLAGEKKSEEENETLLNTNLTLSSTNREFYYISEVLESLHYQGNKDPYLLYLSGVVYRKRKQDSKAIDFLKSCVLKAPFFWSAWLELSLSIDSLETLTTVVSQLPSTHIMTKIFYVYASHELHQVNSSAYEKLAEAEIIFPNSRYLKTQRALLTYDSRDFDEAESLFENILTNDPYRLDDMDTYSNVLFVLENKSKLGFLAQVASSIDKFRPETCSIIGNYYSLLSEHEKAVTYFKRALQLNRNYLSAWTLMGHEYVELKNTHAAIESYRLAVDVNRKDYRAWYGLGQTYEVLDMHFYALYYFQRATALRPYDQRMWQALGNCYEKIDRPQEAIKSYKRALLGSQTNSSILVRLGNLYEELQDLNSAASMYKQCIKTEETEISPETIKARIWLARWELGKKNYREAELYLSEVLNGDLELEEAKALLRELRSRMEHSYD
# B3: Serine/threonine-protein kinase plo1 (Schizosaccharomyces pombe (strain ATCC 38366 / 972)), P50528 (parent)
# chain: B1 chain
# partner: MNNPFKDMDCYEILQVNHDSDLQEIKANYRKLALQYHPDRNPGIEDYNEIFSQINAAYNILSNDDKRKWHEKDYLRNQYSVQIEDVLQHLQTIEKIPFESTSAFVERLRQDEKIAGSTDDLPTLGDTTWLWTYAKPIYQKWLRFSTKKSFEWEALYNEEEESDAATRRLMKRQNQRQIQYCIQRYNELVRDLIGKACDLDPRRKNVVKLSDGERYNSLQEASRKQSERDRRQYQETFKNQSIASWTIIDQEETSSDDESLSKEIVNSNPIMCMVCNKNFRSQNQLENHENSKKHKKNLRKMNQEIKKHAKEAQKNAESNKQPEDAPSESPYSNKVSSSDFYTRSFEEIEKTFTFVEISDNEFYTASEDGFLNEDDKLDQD
# B4: Serine/threonine-protein kinase plo1 (Schizosaccharomyces pombe (strain ATCC 38366 / 972)), P50528 (parent)
# chain: B1 chain
# partner: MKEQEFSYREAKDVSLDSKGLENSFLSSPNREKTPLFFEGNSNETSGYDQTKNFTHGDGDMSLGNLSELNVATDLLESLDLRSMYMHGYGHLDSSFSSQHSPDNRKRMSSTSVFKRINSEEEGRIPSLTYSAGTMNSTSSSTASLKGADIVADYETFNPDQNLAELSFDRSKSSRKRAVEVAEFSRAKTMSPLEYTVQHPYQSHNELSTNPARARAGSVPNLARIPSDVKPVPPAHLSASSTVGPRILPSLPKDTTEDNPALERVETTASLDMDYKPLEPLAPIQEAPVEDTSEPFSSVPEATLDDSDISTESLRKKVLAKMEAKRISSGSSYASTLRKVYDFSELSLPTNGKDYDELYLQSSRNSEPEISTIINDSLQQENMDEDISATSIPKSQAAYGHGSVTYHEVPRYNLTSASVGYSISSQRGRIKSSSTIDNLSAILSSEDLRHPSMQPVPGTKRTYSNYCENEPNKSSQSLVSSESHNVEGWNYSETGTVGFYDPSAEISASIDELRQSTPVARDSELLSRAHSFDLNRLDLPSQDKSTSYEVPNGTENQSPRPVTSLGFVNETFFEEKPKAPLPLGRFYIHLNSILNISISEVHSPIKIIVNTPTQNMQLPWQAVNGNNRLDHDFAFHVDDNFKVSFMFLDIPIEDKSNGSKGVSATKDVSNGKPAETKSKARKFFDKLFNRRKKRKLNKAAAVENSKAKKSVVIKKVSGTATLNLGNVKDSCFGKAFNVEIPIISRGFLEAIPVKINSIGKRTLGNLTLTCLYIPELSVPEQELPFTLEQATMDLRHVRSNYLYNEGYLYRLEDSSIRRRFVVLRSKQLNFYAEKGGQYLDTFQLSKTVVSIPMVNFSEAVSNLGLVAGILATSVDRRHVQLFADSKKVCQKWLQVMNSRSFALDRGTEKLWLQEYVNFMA
# Variants of: B1
# Conditions: with red1_schpo red1, Q9UTR8
row,effect of a mutation on the interaction,Variant
1,decreasing interaction,V498A

# Variants of: B2
# Conditions: with apc8_schpo cut23, O94556
row,effect of a mutation on the interaction,Variant
1,decreasing interaction,L565F
2,decreasing interaction,R605P
3,decreasing interaction,F493L
4,decreasing interaction,V533A

# Variants of: B3
# Conditions: with epr1_schpo epr1, O14213
row,Variant,effect of a mutation on the interaction
1,K251E,disrupting interaction
2,S256P,disrupting interaction
3,I252T,disrupting interaction
4,F493L,disrupting interaction

# Results, then the variant that gave them:
row,effect of a mutation on the interaction,Variant
1,decreasing interaction,V533A
2,decreasing interaction,V498A

# Variants of: B4
# Conditions: with bud4_schpo mid1, P78953
row,effect of a mutation on the interaction,Variant
1,decreasing interaction,V533A
2,decreasing interaction,V498A
